Measurements as given in publication PMC6044717 (ACS Omega, 2018).

Experiments:
Solubility in water = type: physicochemical; conditions: physiological pH and temperature
[1] = target: Human recombinant integrin α5β1 (human) (UniProt P08648); assay: fluorescence polarisation
[2] = target: fluorescein isothiocyanate (FITC)-conjugated GRGDSP peptide; assay: fluorescence polarisation

Compound | solubility in water (Solubility in water) | IC50 [1] [µM] | Ki [1] [µM] | Kd [2] [µM]
O=C(N[C@@H](Cc1ccccc1)C(=O)O)OCC1c2ccccc2-c2ccccc21 [Fmoc-F] | not readily soluble | – | – | –
depsipeptide R-Glc-D (arginine–glycolic acid–aspartic acid) | – | 1120 | 454 | –
arginine–glycine–aspartic acid tripeptide (RGD) | – | 26.8 | 10.8 | –
Human recombinant integrin α5β1 (from UniProt P08648 42-1049; P05556 21-728) (complex) | – | – | – | 0.207
